Common to all, as to assay: cell-based or functional assay
Assay [1] addresses T1, human GIP receptor (human, UniProt P48546 22-466).
T1 sequence (looked up): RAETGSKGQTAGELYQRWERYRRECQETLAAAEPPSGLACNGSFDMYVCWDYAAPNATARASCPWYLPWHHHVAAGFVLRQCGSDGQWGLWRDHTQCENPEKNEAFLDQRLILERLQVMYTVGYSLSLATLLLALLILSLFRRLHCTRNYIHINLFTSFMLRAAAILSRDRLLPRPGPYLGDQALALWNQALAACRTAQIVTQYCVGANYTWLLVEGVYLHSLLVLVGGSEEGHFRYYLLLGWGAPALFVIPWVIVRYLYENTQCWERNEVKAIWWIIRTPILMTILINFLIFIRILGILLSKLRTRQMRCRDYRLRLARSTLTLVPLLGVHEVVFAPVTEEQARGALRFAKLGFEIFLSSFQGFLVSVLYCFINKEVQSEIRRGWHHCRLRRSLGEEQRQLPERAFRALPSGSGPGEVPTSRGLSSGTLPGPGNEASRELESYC

Assay [2] concerns the target T2, rat GLP-1 receptor (rat, UniProt P32301 22-463).
T2 sequence (looked up): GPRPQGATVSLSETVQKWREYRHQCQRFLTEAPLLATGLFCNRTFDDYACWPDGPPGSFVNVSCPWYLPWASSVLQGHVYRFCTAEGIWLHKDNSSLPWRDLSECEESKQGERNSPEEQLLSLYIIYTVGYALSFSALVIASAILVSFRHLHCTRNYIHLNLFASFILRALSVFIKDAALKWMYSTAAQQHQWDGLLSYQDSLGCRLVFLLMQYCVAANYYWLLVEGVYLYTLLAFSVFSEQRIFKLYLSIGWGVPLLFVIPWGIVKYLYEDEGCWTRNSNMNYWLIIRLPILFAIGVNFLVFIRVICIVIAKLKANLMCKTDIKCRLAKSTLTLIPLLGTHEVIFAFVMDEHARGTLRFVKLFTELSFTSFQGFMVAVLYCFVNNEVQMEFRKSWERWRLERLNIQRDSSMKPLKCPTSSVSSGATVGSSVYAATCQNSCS

For assay [3], the target named is human glucagon receptor (human, UniProt P47871 26-477).
Assay [4] concerns the target T3, mouse GIP receptor (mouse, UniProt Q0P543 19-460).
T3 sequence (looked up): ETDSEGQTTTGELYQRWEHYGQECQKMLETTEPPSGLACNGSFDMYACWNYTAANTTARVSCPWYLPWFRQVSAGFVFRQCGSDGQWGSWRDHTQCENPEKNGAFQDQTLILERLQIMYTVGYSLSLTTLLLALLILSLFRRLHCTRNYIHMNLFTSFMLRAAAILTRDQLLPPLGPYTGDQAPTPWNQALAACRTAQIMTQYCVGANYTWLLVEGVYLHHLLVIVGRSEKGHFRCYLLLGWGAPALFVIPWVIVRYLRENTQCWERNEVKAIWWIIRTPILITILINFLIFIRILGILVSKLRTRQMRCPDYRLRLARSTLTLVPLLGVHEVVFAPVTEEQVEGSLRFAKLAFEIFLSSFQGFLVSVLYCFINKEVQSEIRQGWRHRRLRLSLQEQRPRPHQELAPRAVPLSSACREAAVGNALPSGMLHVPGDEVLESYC

Assay [5] has as its target T4, human GLP-1 receptor (human, UniProt P43220 24-463).
Assay [6] concerns the target T5, rat GIP receptor (rat, UniProt P43219 19-455).
T5 sequence (looked up): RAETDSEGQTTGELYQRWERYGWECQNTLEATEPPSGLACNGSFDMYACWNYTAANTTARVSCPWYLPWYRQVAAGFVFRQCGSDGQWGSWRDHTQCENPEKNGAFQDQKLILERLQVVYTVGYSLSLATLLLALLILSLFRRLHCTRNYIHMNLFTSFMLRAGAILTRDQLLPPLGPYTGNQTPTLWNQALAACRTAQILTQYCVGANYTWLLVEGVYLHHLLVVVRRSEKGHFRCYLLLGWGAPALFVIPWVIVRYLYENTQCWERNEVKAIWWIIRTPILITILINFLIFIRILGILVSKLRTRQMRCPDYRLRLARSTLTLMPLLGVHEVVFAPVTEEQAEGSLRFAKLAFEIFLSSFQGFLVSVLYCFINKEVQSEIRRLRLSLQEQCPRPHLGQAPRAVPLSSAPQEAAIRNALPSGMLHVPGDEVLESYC

Assay [7] concerns the target T6, mouse GLP-1 receptor (mouse, UniProt O35659 22-463).
T6 sequence (looked up): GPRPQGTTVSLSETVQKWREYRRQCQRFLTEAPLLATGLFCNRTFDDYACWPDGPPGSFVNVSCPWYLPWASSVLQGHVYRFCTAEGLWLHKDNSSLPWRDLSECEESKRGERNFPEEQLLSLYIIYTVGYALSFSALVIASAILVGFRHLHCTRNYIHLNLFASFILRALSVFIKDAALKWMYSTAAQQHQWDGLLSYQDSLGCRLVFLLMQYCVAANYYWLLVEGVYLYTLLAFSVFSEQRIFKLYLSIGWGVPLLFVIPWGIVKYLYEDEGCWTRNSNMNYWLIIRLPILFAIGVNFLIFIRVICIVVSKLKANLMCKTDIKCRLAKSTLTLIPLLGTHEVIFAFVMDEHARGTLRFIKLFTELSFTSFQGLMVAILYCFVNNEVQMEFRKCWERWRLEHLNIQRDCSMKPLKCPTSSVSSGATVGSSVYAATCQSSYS

Assay [8] concerns the target T1, human GIP receptor. The source holds these as a separate data set.
Assay [9] deals with T2, rat GLP-1 receptor. This is another data set of the same source.
The target of assay [10] is T3, mouse GIP receptor. This is another data set of the same source.
The target of assay [11] is T4, human GLP-1 receptor. The source holds these as a separate data set.
Assay [12] addresses T6, mouse GLP-1 receptor. This is another data set of the same source.
In assay [13] the target is cynomolgus monkey glucagon receptor (cynomolgus monkey).
The target of assay [14] is cynomolgus monkey GLP-1 receptor (cynomolgus monkey, UniProt F8V479 24-463).

Like-named read-outs stand apart in the source and are kept apart here.

B1: IP088 (Fc fusion)
chain: YSEGTFTSDYSKLLEEEAVRLFIEWLVKGPAAAGGSGSTASSGSGSATGGGGAATHTCPPCPAPEF
Regarding B1, the “cAMP EC50” value in assay [1] is 7.8 pM; in assay [2] it was 33 pM; in [3], 460 nM; in assay [4] it was 86 nM; in assay [5], 76 pM; in [6] it was 100 pM. In addition, the “cAMP EC50” value in assay [7] turned out to be 310 pM; in assay [8], 16 pM; in [9] it was 38 pM; in assay [10] it was 137 nM; in assay [11], 222 pM; in [12] it was 420 pM. Also, the “cAMP EC50, 4.2% cyno serum albumin” value in assay [13] is greater than 1 µM; in assay [14] it was 190 pM.

For the origin of these results see patent publication US20160185837A1 (AstraZeneca / MedImmune, published 2016).
